# Changes are numbered by the printed parent chain.
# B1: P114AR5P74-A5 (designed binder, not shown: small tags and cut ends)
# chain: LPAPKNLVVSRVTEDSARLSWTAPDAAFDSFWIRYDEVVVGGEAIVLTVPGSERSYDLTGLKPGTEYYVNILGVKGGSISVPLSAIFTT
# B2: P53A1R5-17 (designed binder, not shown: small tags and cut ends)
# chain: LPAPKNLVVSEVTEDSLRLSWADPHGFYDSFLIQYQESEKVGEAINLTVPGSERSYDLTGLKPGTEYTVSIYGVHNVYKDTNMRGLPLSAEFTT
# B3: P54AR4-17 (designed binder, not shown: small tags and cut ends)
# chain: B2 chain with A22T, D23Y, P24D, H25R, G26D, F27G
# B4: P54AR4-48 (designed binder, not shown: small tags and cut ends)
# chain: B2 chain with A22D, H25R, D29E
# B5: P54AR4-73 (designed binder, not shown: small tags and cut ends)
# chain: B2 chain with A22T, D23W, H25Y, G26A, F27D, Y28L
# B6: P54AR4-83 (designed binder, not shown: small tags and cut ends)
# chain: B2 chain with A22D, H25W, G26A, D29E
# B7: P54CR4-31 (designed binder, not shown: small tags and cut ends)
# chain: LPAPKNLVVSEVTEDSLRLSWTAPDAAFDSFLIQYQESEKVGEAINLTVPGSERSYDLTGLKPGTEYTVSIYGVLGSYVFEHDVMLPLSAEFTT
# Biological target: human c-Met on cells (human, UniProt P08581 25-1390)
# Sequence (P08581 other isoform, or with tags, fused parts or gaps limits assumed): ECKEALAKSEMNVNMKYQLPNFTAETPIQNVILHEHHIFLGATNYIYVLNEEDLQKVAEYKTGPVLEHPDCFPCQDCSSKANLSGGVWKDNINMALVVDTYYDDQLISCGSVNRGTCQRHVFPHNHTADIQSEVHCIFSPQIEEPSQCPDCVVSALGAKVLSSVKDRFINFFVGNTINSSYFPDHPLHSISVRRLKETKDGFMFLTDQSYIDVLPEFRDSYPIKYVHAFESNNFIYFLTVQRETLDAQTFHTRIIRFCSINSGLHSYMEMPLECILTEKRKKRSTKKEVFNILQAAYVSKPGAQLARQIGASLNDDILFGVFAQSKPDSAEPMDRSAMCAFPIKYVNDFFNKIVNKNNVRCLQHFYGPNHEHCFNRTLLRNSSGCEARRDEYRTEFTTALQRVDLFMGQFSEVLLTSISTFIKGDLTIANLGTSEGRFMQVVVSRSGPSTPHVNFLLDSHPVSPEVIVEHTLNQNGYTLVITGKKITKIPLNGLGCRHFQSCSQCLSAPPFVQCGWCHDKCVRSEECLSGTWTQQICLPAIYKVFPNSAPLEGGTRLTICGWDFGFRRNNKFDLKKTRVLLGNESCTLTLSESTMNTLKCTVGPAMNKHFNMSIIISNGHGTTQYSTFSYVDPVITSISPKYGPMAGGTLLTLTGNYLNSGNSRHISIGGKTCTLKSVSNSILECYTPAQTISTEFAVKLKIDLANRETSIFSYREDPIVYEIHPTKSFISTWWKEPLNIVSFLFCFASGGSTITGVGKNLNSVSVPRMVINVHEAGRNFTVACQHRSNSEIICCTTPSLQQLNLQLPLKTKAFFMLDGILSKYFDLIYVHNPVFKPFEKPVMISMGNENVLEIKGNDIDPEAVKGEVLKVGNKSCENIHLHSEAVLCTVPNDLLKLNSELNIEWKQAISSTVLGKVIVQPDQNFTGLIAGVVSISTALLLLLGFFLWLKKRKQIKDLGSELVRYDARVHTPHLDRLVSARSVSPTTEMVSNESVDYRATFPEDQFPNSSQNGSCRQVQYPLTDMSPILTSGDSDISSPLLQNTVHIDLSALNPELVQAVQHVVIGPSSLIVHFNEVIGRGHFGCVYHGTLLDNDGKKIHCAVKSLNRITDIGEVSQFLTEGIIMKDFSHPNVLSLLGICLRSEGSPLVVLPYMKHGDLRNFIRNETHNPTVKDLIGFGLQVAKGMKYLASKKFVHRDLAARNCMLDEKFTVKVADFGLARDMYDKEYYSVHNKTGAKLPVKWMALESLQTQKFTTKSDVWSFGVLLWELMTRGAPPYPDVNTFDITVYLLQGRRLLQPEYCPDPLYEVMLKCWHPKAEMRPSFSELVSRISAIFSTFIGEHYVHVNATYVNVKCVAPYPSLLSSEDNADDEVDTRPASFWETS
# Experiment: cell-based or functional assay
row,Binder,inhibition of c-Met phosphorylation in NCI-H292 cells (IC50) [nM]
1,B1,610

# Biological target: human EGFR on cells (human, UniProt P00533 25-1210)
# Experiment: cell-based or functional assay
row,Binder,"Phospho-EGFR IC50 (A431 cells, Tyr1173) [nM]"
1,B2,> 2500
2,B3,184
3,B4,170
4,B5,141
5,B6,18
6,B7,179
